Target: isolated NS2B-NS3 protein complex from the DENV-2 viral genome (Dengue virus type 2 (DENV-2)) (UniProt P14340)
Experiment: cell-based or functional assay

UniProt P14340, sequence (P14340 1394-1440 limits assumed, chain 1 of 2): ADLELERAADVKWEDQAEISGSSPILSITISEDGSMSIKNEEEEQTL
UniProt P14340, sequence (P14340 1476-1660 limits assumed, chain 2 of 2): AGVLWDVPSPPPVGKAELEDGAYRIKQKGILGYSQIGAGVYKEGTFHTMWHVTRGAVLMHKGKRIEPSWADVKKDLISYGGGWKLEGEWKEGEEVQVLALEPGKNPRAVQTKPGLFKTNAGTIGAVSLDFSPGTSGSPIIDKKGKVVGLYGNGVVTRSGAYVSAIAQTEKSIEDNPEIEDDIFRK

B1: RetroMAD1 (protein)
chain: MGRICRCICGRGICRCICGVPGVGVPGVGGATGSDVNFDLSTATAKTYTKFIEDFRATLPFSHKVYDIPLLYSTISDSRRFILLDLTSYAYETISVAIDVTNVYVVAYRTRDVSYFFKESPPEAYNILFKGTRKITLPYTGNYENLQTAAHKIRENIDLGLPALSSAITTLFYYNAQSAPSALLVLIQTTAEAARFKYIERHVAKYVATNFKPNLAIISLENQWSALSKQIFLAQNQGGKFRNPVDLIKPTGERFQVTNVDSDVVKGNIKLLLNSRASTADENFITTMTLLGESVVEFPWALWKTMLKELGTMALHAGKAALGAAADTISQGTQVPGVGVPGVGKLAAALEHHHHHH
With B1 the inhibition of NS2B-NS3 protease (cleavage of fluorogenic peptide substrate) (% inhibition at 10.8 µM) was 94.3.
